Target: RGY-hIgG1-34-1-2S (mouse | human | not stated)
Assay: negative stain electron microscopy; antibody in solution diluted to 0.01 mg/ml in 25 mM HEPES, 100 mM NaCl, on carbon-coated grids, 0.75% uranyl formate

B1: RGY-hIgG1-34-1-2S (antibody, V domains shown)
VH: EVQLQQSGAEFVRPGASVKLSCTASGFNLKDDYMFWVKQRPEQGLEWIGWIAPDNGDTEYASKFQGKATITADTSSNTAYVQLSSLTSEDTAVYYCTTWGYYSYVNYWGQGTTLTVSS
VL: DIQMTQSPSSLSASLGERVSLTCRASQDIGSNLNWLQQEPDGTIKRLIYATYSLDSGVPKRFSGSRSGSDYSLTISSLESEDFVDYYCLQYASSPYTFGGGTKLEIK
stoichiometry N: 6

From paper doi:10.1101/2024.01.24.577129
